Source: patent publication US11814447B2, “Peptide ligands for binding to EphA2” (BICYCLERD LIMITED, priority 2018, dated 2023)
Where two headings read alike, the source gives them in different places. One block for each molecule: values may come before it. Starred links: 1 amine or outer side, 2 acyl side, 3 side chain; linkers in the order of their positions; H or OH if unused. Positions of bridges follow the written chain, without caps; N, C: chain ends. Non-standard residues stand in square brackets, D forms with d. Primed or numbered codes have the meaning given here. No end group written: not given here. TBMB′ = 1,3,5-tris(bromomethyl)benzene, 1,3,5-tris(methylene)benzene core, three thioethers to Cys; TATA = O=C(CC[*:1])N1CN(C(=O)CC[*:2])CN(C(=O)CC[*:3])C1; TBMB = c1c(C[*:1])cc(C[*:3])cc1C[*:2]; hArg = N=C(N)NCCCC[C@H](N)C(=O)O; AF488 = AlexaFluor488; βAla = NCCC(=O)O; Sar = CNCC(=O)O

Legend:
Human EphA2 = biological target: T1, Human EphA2 (Homo sapiens, UniProt P29317); assay: Fluorescence polarisation competition binding assay
T1 construct: EphA2 (Ecto); polyHis (C)
T1 sequence (P29317 24-537 limits assumed): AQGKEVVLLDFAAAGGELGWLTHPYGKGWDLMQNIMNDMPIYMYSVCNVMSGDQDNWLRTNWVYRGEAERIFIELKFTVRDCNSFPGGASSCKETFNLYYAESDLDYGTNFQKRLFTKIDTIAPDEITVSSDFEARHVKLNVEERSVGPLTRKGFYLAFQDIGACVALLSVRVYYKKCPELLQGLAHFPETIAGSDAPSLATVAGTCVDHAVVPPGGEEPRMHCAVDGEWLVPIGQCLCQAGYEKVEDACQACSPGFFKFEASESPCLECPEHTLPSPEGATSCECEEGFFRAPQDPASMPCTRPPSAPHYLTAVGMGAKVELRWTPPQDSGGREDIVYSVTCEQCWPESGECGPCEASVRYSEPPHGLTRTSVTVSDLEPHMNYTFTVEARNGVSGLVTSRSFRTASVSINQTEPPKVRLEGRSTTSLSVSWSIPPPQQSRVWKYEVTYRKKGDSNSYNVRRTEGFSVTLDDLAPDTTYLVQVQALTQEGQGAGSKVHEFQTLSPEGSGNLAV
Protocol: 1. Fluorescence Polarisation Measurements
(b) Competition Binding Assay
Peptides without a fluorescent tag were tested in competition with a peptide with a fluorescent tag and a known Kd (Table 2). Peptides were diluted to an appropriate concentration in assay buffer as described in the direct binding assay with a maximum of 5% DMSO, then serially diluted 1 in 2. […] Measurements were conducted as for the direct binding assay, however the gain was determined prior to the first measurement. Data analysis was in Systat Sigmaplot version 12.0 where the mP values were fit to a user defined cubic equation to generate a Ki value: f=y min+(y max−y min)/Lig*((Lig*((2*((Klig+Kcomp+Lig+Comp−Prot*c)^2−3*(Kcomp*(Lig−Prot*c)+Klig*(Comp−Prot*c)+Klig*Kcomp))^0.5*COS(ARCCOS((−2*(Klig+Kcomp+Lig+Comp−Prot*c)^3+9*(Klig+Kcomp+Lig+Comp−Prot*c)*(Kcomp*(Lig−Prot*c)+Klig*(Comp−Prot*c)+Klig*Kcomp)−27*(−1*Klig*Kcomp*Prot*c))/(2*(4(Klig+Kcomp+Lig+Comp−Prot*c)^2−3*(Kcomp*(Lig−Prot*c)+Klig*(Comp−Prot*c)+Klig*Kcomp))^3)^0.5)))/3))−(Klig+Kcomp+Lig+Comp−Prot*c)))/((3*Klig)+42*((Klig+Kcomp+Lig+Comp−Prot*c)^2−3*(Kcomp*(Lig−Prot*c)+Klig*(Comp−Prot*c)+Klig*Kcomp))^0.5*COS(ARCCOS((−2*(Klig+Kcomp+Lig+Comp−Prot*c)^3+9*(Klig+Kcomp+Lig+Comp−Prot*c)*(Kcomp*(Lig−Prot*c)+Klig*(Comp−Prot*c)+Klig*Kcomp)−27*(−1*Klig*Kcomp*Prot*c))/(2*(4(Klig+Kcomp+Lig+Comp−Prot*c)^2−3*(Kcomp*(Lig−Prot*c)+Klig*(Comp−Prot*c)+Klig*Kcomp))^3)^0.5)))/3))−(Klig+Kcomp+Lig+Comp−Prot*c)))).
“Lig”, “KLig” and “Prot” were all defined values relating to: fluorescent peptide concentration, the Kd of the fluorescent peptide and EphA2 concentration respectively.

Mouse EphA2 (Ecto) [1] = biological target: T2, Mouse EphA2 (Ecto) (Mouse, UniProt Q03145 26-538); assay: FP competition; tracer Reference Compound C
T2 construct: extracellular domain; C-terminal polyHis; not shown: Fc fusion or C-terminal polyHis
Protocol: (§1) Peptides without a fluorescent tag were tested in competition with a peptide with a fluorescent tag and a known Kd (Table 2). Peptides were diluted to an appropriate concentration in assay buffer as described in the direct binding assay with a maximum of 5% DMSO, then serially diluted 1 in 2. […] Measurements were conducted as for the direct binding assay, however the gain was determined prior to the first measurement. Data analysis was in Systat Sigmaplot version 12.0 where the mP values were fit to a user defined cubic equation to generate a Ki value: […]
T2 sequence (Q03145 26-538): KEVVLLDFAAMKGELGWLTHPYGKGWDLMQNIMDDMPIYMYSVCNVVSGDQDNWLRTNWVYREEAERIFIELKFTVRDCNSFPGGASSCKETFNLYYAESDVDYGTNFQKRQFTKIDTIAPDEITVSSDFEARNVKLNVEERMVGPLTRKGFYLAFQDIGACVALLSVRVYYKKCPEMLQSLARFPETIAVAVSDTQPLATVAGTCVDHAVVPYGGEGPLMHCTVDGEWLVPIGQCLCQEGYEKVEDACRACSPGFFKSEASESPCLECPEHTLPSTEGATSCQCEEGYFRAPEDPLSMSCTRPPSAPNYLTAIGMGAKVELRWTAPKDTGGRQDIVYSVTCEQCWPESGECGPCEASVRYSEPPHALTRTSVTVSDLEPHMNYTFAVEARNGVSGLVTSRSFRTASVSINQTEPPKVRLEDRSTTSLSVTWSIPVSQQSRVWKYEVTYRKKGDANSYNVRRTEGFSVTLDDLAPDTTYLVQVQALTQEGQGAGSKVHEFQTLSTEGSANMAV

Human EphA2 (Ecto) [2] = biological target: T3, Human EphA2 (Ecto) (Human, UniProt P29317 24-537); assay: FP competition; tracer Reference Compound C
T3 construct: extracellular domain; in-house)
Protocol: as §1
T3 sequence (P29317 24-537): as the sequence (P29317 24-537 limits assumed) above

[3] = biological target: T4, Human EphA2 (Ecto), C-terminal polyHis (Human, UniProt P29317 24-537); assay: fluorescence polarisation, direct binding
T4 construct: extracellular domain; also called EPH receptor A2; ephrin type-A receptor 2
T4 sequence (P29317 24-537): as the sequence (P29317 24-537 limits assumed) above
Protocol: Biological Data 1. […] The gain used for analysis was determined for each tracer at the end of the 60 minutes where there was no protein in the well. Data was analysed using Systat Sigmaplot version 12.0. mP values were fit to a user defined quadratic equation to generate a Kd value: f=y min+(y max−y min)/Lig*((x+Lig+Kd)/2−sqrt((((x+Lig+Kd)/2)^2)−(Lig*x))). "Lig" was a defined value of the concentration of tracer used.

[4] = biological target: Human EphA2 (Ecto) (Human) (UniProt P29317); assay: FP competition; tracer Reference Compound C
Sequence of Human EphA2 (Ecto) (Human) (P29317 24-537): as the sequence (P29317 24-537 limits assumed) above

[5] = biological target: Mouse EphA2 (Ecto) (Mouse) (UniProt Q03145); assay: FP competition; tracer Reference Compound C
Sequence of Mouse EphA2 (Ecto) (Mouse) (Q03145 26-538): as the sequence (Q03145 26-538) above

[6] = biological target: T4, Human EphA2 (Ecto), C-terminal polyHis; assay: fluorescence polarisation competition; competitor fluorescent Compound 12
Protocol: as §1

[7] = biological target: T4, Human EphA2 (Ecto), C-terminal polyHis; assay: fluorescence polarisation competition; competitor fluorescent Compound 66
Summary of the method: (§2)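 Unlabelled peptides competed against a fluorescently tagged peptide of known Kd. Peptides were diluted in direct-binding assay buffer (≤5% DMSO) and serially diluted 1 in 2. Read as in the direct binding assay, with gain set before the first read; mP values fit to a cubic equation to give Ki.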

Human EphA2 (Ecto) [8] = biological target: T3, Human EphA2 (Ecto); assay: FP competition; tracer Reference Compound A
Protocol: as §1

Human EphA2 (Ecto) [9] = biological target: T3, Human EphA2 (Ecto); assay: FP competition; tracer Reference Compound B
Protocol: as §1

Human EphA2 (Ecto) [10] = biological target: T5, Human EphA2 (Ecto) (Human, UniProt P29317 24-537); assay: FP competition, tracer Compound 18
T5 construct: extracellular domain
Summary of the method: as §2
T5 sequence (P29317 24-537): as the sequence (P29317 24-537 limits assumed) above

Mouse EphA2 (Ecto) [11] = biological target: T6, Mouse EphA2 (Ecto) (Mouse, UniProt Q03145 26-538); assay: FP competition, tracer Compound 18
T6 construct: extracellular domain
Summary of the method: as §2
T6 sequence (Q03145 26-538): as the sequence (Q03145 26-538) above

[12] = read-out: Ki, nM ± 95% CI Human EphA2 Fluorescent peptide Compound 18, Table 9, Ala scan peptides
[13] = read-out: Ki, nM ± 95% CI, Human EphA2, competition binding assay, fluorescent peptide Compound 18, TBMB scaffold reference peptides

Molecule: ADVHCPWGPFWC[dA]VNRPGCA (cysteine pairing not given here) [Compound 154]
Ki (Human EphA2; [12]): 101 nM
Ki (Human EphA2; [13]): 101 nM

Molecule: ADVHCPWGPFWCPV[dA]RPGCA (cysteine pairing not given here) [Compound 155]
Ki (Human EphA2; [12]): 2 nM
Ki (Human EphA2; [13]): 2 nM

Molecule: AF488-G[Sar][Sar][Sar][Sar][Sar][Sar][Sar][Sar][Sar][Sar]ACMNDWLCSLGWTC (linker 13-19-25 via TBMB) [Bicycle Compound Number 2 (TBMB scaffold)]
Kd [3]: 326 nM

Molecule: ACPWGPAWCPVNRPGCAGAAA (linker 2-9-16 via TBMB (inferred), also called Compound 45) [Bicycle Compound Number 45 (TBMB scaffold)]
Ki [6]: 99.2 nM
Ki [7]: 117 nM

Molecule: ACYVGKECAYMNVCA (linker 2-8-14 via TATA) [Bicycle Compound Number 29 (TATA scaffold), ACYVGKECAYMNVCA]
Ki (Human EphA2 (Ecto) [8]): 87.7 nM
Ki (Human EphA2 (Ecto) [2]): 210 nM
Ki (Human EphA2 (Ecto) [9]): 107 nM

Molecule: Ac-[Sar][Sar]A[dD]VTCPWGPFWCPVNRPGC (linker 7-14-21 via TBMB′) [Bicycle Compound 158]
Ki (Human EphA2 (Ecto) [10]): 2.05 nM
Ki (Mouse EphA2 (Ecto) [11]): 2.2 nM

Molecule: Ac-[Sar][Sar]H[dD]VPCPWGPFWCPVNRPGC (linker 7-14-21 via TBMB) [Bicycle Compound 225]
Ki (Human EphA2 (Ecto) [10]): 1 nM
Ki (Mouse EphA2 (Ecto) [11]): 2.08 nM

B3: Bicycle Compound Number 14 (TBMB scaffold) (peptide)
peptide: GXXXXXXXXXXACPWGPAWCPVNRPGCA
modifications: N-terminal AF488 (AlexaFluor488); Sar10; 3 Cys thioether-linked to TBMB scaffold
Kd [3]: 38 nM

The next lines start with the values.

Ki (Mouse EphA2 (Ecto) [1]): 29.6 nM
Ki (Human EphA2 (Ecto) [2]): 2.86 nM
Molecule: XXXXXXXXXXXACPLVNPLCLHPGWSCRGQ (N-terminal (β-Ala)-Sar10; 3 Cys thioether-linked to TATA scaffold) [Bicycle Compound Number 89 (TATA scaffold), (β-Ala)-Sar10-ACPLVNPLCLHPGWSCRGQ]

Ki [4]: 5.41 nM
Ki [5]: 47 nM
Molecule: [βAla][Sar][Sar][Sar][Sar][Sar][Sar][Sar][Sar][Sar][Sar]ACPLVNPLCLHPGWSC[hArg]GQ (linker 13-20-27 via TATA) [Bicycle Compound Number 90 (TATA scaffold), (β-Ala)-Sar10-…(HArg)GQ]

Ki [6]: 410 nM
Ki [7]: 63.4 nM
Molecule: ACTTGSIWCALQFEPCA (linker 2-9-16 via TBMB (inferred), also called Compound 64) [Bicycle Compound Number 64 (TBMB scaffold)]

Ki (Mouse EphA2 (Ecto) [1]): 75.3 nM
Ki (Human EphA2 (Ecto) [2]): 10.6 nM
B1: Bicycle Compound Number 92 (TATA scaffold), Ac-CPLVNPLCLHPGWSC(HArg)GQ-Sar6-(D-K) (peptide)
peptide: CPLVNPLCLHPGWSCXGQXXXXXXK
modifications: N-terminal acetyl; X16 = HArg (homoarginine); X at 19-24 = Sar; K25 = D-Lys; 3 Cys thioether-linked to TATA scaffold

Ki (Mouse EphA2 (Ecto) [1]): 75.2 nM
Ki (Human EphA2 (Ecto) [2]): 10 nM
B2: Bicycle Compound Number 76 (TATA scaffold), (β-Ala)-Sar10-ACPLVNPLCLHPGWTCL(D-His)G (peptide)
peptide: XXXXXXXXXXXACPLVNPLCLHPGWTCLHG
modifications: X1 = β-Ala; X at 2-11 = Sar; H29 = D-His; 3 Cys thioether-linked to TATA scaffold

Ki (Mouse EphA2 (Ecto) [1]): 49.9 nM
Ki (Human EphA2 (Ecto) [2]): 5.98 nM
B4: Bicycle Compound Number 91 (BCY6042) (TATA scaffold), Ac-CPLVNPLCLHPGWSCRGQ-Sar6-(D-K) (peptide)
peptide: CPLVNPLCLHPGWSCRGQXXXXXXK
modifications: N-terminal acetyl; X at 19-24 = Sar; K25 = D-Lys; 3 Cys thioether-linked to TATA scaffold

Ki [4]: 8.51 nM
Ki [5]: 61.7 nM
Molecule: [βAla][Sar][Sar][Sar][Sar][Sar][Sar][Sar][Sar][Sar][Sar]A[hArg]DCPLVNPLCLHPGWTC (linker 15-22-29 via TATA) [Bicycle Compound Number 67 (BCY6014) (TATA scaffold), (β-Ala)-Sar10-A(HArg)…]
